Measurements published in patent US20050215503, “HIF oligonucleotide decoy molecules” (published 2005).

Key:
[1] = target: T1, HIF-1 (HIF-1alpha/HIF-1beta (ARNT) heterodimer) (UniProt Q16665;P27540 Q16665:1-826,P27540:2-789); experiment: competition; TransAM; two sites; conditions: protein: extract; tags: none (endogenous, nuclear extract)
Description: To assess the relative affinities of oligonucleotides for a HIF-1α containing complex, the HIF-1 TransAM assay (Active Motif, Catalog # 47096) was utilized. The assay was performed according to manufacturer's instructions. Briefly, a double-stranded oligonucletide containing the hypoxia response element (HRE) was immobilized on a 96-well plate. A nuclear extract containing HIF-1α complexes was incubated and allowed to bind to the immobilized oligonucleotide. The unbound material was washed away and the bound HIF-1α detected using an antibody that specificially recognizes HIF-1α. The anti-HIF-1α antibody was detected by a secondary antibody labeled with horseradish peroxidase (HRP), and the amount of HRP in each well was measured using a calorimetric substrate reaction and read using a microplate spectrophotometer.
The ability of candidate decoy molecules to compete for binding of HIF-1α to the HRE element-immobilized on the plate were measured and compared to reveal relative binding affinities. Candidate decoys were added in increasing molar ratios (relative to the amount of oligo immobilized on the plate) to compete for binding to the HIF-1α containing complexes. The amounts of decoys added to the assay included 0.625, 1.25, 2.5, 5, 10 and 20 fold molar excess. A well containing a competing decoy able to bind HIF-1α with high affinity would give a lower absorbance reading as compared to a decoy with low affinity for HIF-1α. All potential decoys were then compared and ranked in order to assess their relative binding affinities.
The screen was conducted using different decoy concentrations. For each UV absorbance reading, normalization was done by calculating the ratio of absorbance readings of sample vs. wild type control. The bigger ratio represents less competition of binding with HIF-1α when compared with wild-type control. The smaller (smaller than 1.0 or close to 1.0) ratios represent better binding or better competition.

[2] = target: T1, HIF-1 (HIF-1alpha/HIF-1beta (ARNT) …); experiment: competition; TransAM absorbance ratio vs wild-type control at 2.5; lower = better (all Table 2B lines); 1.22 in Table 5; conditions: protein: extract; tags: none (endogenous, nuclear extract)

T1 sequence (Q16665 whole entry, chain 1 of 2): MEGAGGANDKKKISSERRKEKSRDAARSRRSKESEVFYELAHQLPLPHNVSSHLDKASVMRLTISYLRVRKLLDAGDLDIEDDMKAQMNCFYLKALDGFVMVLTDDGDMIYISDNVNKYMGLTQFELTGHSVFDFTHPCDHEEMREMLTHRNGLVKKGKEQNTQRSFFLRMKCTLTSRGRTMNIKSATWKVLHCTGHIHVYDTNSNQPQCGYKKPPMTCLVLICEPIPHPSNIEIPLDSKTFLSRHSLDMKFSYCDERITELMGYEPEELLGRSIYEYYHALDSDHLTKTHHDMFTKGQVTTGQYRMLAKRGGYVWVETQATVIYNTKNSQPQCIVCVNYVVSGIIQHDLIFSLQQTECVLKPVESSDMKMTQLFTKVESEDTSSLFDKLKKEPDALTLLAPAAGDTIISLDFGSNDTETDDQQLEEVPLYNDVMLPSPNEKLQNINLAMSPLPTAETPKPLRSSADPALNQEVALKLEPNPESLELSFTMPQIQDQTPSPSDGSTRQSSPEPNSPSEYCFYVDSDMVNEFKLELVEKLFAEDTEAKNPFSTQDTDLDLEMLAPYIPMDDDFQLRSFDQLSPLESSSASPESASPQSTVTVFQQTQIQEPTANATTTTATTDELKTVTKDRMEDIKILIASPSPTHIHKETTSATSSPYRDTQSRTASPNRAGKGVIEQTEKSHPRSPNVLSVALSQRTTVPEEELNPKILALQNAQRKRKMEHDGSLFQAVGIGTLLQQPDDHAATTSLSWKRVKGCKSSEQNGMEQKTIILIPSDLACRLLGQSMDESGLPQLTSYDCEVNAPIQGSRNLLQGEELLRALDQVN
T1 sequence (P27540 2-789, chain 2 of 2): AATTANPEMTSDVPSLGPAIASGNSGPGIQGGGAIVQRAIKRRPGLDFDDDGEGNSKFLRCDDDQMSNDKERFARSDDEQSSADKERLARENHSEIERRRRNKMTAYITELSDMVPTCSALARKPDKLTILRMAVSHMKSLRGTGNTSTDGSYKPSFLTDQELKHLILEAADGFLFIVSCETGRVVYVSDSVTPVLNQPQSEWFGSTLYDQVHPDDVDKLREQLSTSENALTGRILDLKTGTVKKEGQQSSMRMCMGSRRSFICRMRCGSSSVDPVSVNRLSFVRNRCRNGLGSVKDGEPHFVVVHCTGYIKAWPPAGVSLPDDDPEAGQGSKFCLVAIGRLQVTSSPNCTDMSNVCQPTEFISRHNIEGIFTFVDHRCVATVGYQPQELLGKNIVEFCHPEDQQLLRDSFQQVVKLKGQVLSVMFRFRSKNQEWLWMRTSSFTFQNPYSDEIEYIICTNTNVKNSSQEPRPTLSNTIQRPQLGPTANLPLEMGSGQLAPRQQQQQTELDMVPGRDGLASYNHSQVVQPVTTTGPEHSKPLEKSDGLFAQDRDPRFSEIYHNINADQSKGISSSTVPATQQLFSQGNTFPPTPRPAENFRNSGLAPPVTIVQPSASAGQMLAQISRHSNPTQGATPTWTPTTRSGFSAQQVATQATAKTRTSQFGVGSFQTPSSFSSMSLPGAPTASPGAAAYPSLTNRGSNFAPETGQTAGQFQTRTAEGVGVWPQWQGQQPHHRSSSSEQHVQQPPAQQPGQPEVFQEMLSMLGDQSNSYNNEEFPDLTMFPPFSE

B1: decoy 841/842 double (dsDNA)
DNA 1: AGCGGACGTGCAGAAGTTGCACGTCCTCT
DNA 2: AGAGGACGTGCAACTTCTGCACGTCCGCT
binding signal [1]: 0.99 ratio

B2: decoy 909 double (dsDNA)
DNA 1: AGCGGACGTGCAGATGCACGTCCTCT
DNA 2: AGAGGACGTGCATCTGCACGTCCGCT
binding signal [1]: 1.72 ratio

B3: decoy 857/858 double (dsDNA)
DNA 1: GCGGACGTGCGGGAACCCACGTGTAGG
DNA 2: CCTACACGTGGGTTCCCGCACGTCCGC
binding signal [1]: 2.46 ratio

B4: decoy 819/820 double (dsDNA)
DNA 1: GAAATACGTGCGCTTTGTGTGTACGTGCAGGAA
DNA 2: TTCCTGCACGTACACACAAAGCGCACGTATTTC
binding signal [1]: 1.16 ratio

B5: decoy 907 double (dsDNA)
DNA 1: GAAATACGTGCGTGTGTACGTGCAGG
DNA 2: CCTGCACGTACACACGCACGTATTTC
binding signal [1]: 0.91 ratio

B6: decoy 895/896 (dsDNA)
DNA 1: CACCAGCGTACGTGCCTCAGG
DNA 2: CCTGAGGCACGTACGCTGGTG
binding signal [2]: 1.13 ratio
